# Assay results published in PMC10973816.
# How the values were obtained:
# [1] = Non-permeabilised mAb-1438 immunolabelling, HEK, untagged; conditions: glycan lost; control: wild type
# [2] = EGFP in TRPM1-positive OPL puncta, electroporated mouse retina; conditions: glycan lost; control: wild type mGluR6-EGFP
# [3] = Total EGFP fluorescence, HEK; conditions: glycan lost; control: wild type mGluR6-EGFP
# [4] = Permeabilised mAb-1438 immunolabelling, HEK, untagged; conditions: glycan lost; control: wild type
protein,measurement,setting,value
mGluR6 (metabotropic glutamate receptor 6): N290Q (protein) parent chain: MGRLRVLLLWLAWWLSQAGIAHGAGSVRLAGGLTLGGLFPVHARGAAGRACGTLKKEQGVHRLEAMLYALDRINADPELLPGVRLGARLLDTCSRDTYALEQALSFVQALIRGRGDGEEASVRCPGGVPPLRAAPPERVVAVVGASASSVSIMVANVLRLFAIPQISYASTAPELSDSTRYDFFSRVVPPDSYQAQAMVDIVRALGWNYVSTLASEGNYGESGVEAFVQISREAGGVCIAQSIKIPREPKPGEFHKVIRRLMETPNARGIIIFANEDDIRRVLEATRQANLTGHFLWVGSDSWGSKISPILNLEEEAVGAITILPKRASIDGFDQYFMTRSLENNRRNIWFAEFWEENFNCKLTSSGGQSDDSTRKCTGEERIGQDSTYEQEGKVQFVIDAVYAIAHALHSMHQALCPGHTGLCPAMEPTDGRTLLHYIRAVRFNGSAGTPVMFNENGDAPGRYDIFQYQATNGSASSGGYQAVGQWAEALRLDMEALQWSGDPHEVPPSQCSLPCGPGERKKMVKGVPCCWHCEACDGYRFQVDEFTCEACPGHMRPTPNHTGCRPTPVVRLTWSSPWAALPLLLAVLGIMATTTIIATFMRHNDTPIVRASGRELSYVLLTGIFLIYAITFLMVAEPCAAVCASRRLLLGLGTTLSYSALLTKTNRIYRIFEQGKRSVTPPPFISPTSQLVITFGLTSLQVVGVIAWLGAQPPHSVIDYEEQRTVDPEQARGVLKCDMSDLSLIGCLGYSLLLMVTCTVYAIKARGVPETFNEAKPIGFTMYTTCIIWLAFVPIFFGTAQSAEKIYIQTTTLTVSLSLSASVSLGMLYVPKTYVILFHPEQNVQKRKRSLKKTSTMAAPPKSENSEDAK,localisation_or_trafficking,[1],no change
same,localisation_or_trafficking,[2],no change
mGluR6 (metabotropic glutamate receptor 6): triple mutant (only N290 left) (protein) parent chain: MGRLRVLLLWLAWWLSQAGIAHGAGSVRLAGGLTLGGLFPVHARGAAGRACGTLKKEQGVHRLEAMLYALDRINADPELLPGVRLGARLLDTCSRDTYALEQALSFVQALIRGRGDGEEASVRCPGGVPPLRAAPPERVVAVVGASASSVSIMVANVLRLFAIPQISYASTAPELSDSTRYDFFSRVVPPDSYQAQAMVDIVRALGWNYVSTLASEGNYGESGVEAFVQISREAGGVCIAQSIKIPREPKPGEFHKVIRRLMETPNARGIIIFANEDDIRRVLEATRQANLTGHFLWVGSDSWGSKISPILNLEEEAVGAITILPKRASIDGFDQYFMTRSLENNRRNIWFAEFWEENFNCKLTSSGGQSDDSTRKCTGEERIGQDSTYEQEGKVQFVIDAVYAIAHALHSMHQALCPGHTGLCPAMEPTDGRTLLHYIRAVRFNGSAGTPVMFNENGDAPGRYDIFQYQATNGSASSGGYQAVGQWAEALRLDMEALQWSGDPHEVPPSQCSLPCGPGERKKMVKGVPCCWHCEACDGYRFQVDEFTCEACPGHMRPTPNHTGCRPTPVVRLTWSSPWAALPLLLAVLGIMATTTIIATFMRHNDTPIVRASGRELSYVLLTGIFLIYAITFLMVAEPCAAVCASRRLLLGLGTTLSYSALLTKTNRIYRIFEQGKRSVTPPPFISPTSQLVITFGLTSLQVVGVIAWLGAQPPHSVIDYEEQRTVDPEQARGVLKCDMSDLSLIGCLGYSLLLMVTCTVYAIKARGVPETFNEAKPIGFTMYTTCIIWLAFVPIFFGTAQSAEKIYIQTTTLTVSLSLSASVSLGMLYVPKTYVILFHPEQNVQKRKRSLKKTSTMAAPPKSENSEDAK,expression_or_secretion,[3],decreases
same,expression_or_secretion,[4],decreases
same,localisation_or_trafficking,[1],decreases
mGluR6 (metabotropic glutamate receptor 6): N473Q (protein) parent chain: MGRLRVLLLWLAWWLSQAGIAHGAGSVRLAGGLTLGGLFPVHARGAAGRACGTLKKEQGVHRLEAMLYALDRINADPELLPGVRLGARLLDTCSRDTYALEQALSFVQALIRGRGDGEEASVRCPGGVPPLRAAPPERVVAVVGASASSVSIMVANVLRLFAIPQISYASTAPELSDSTRYDFFSRVVPPDSYQAQAMVDIVRALGWNYVSTLASEGNYGESGVEAFVQISREAGGVCIAQSIKIPREPKPGEFHKVIRRLMETPNARGIIIFANEDDIRRVLEATRQANLTGHFLWVGSDSWGSKISPILNLEEEAVGAITILPKRASIDGFDQYFMTRSLENNRRNIWFAEFWEENFNCKLTSSGGQSDDSTRKCTGEERIGQDSTYEQEGKVQFVIDAVYAIAHALHSMHQALCPGHTGLCPAMEPTDGRTLLHYIRAVRFNGSAGTPVMFNENGDAPGRYDIFQYQATNGSASSGGYQAVGQWAEALRLDMEALQWSGDPHEVPPSQCSLPCGPGERKKMVKGVPCCWHCEACDGYRFQVDEFTCEACPGHMRPTPNHTGCRPTPVVRLTWSSPWAALPLLLAVLGIMATTTIIATFMRHNDTPIVRASGRELSYVLLTGIFLIYAITFLMVAEPCAAVCASRRLLLGLGTTLSYSALLTKTNRIYRIFEQGKRSVTPPPFISPTSQLVITFGLTSLQVVGVIAWLGAQPPHSVIDYEEQRTVDPEQARGVLKCDMSDLSLIGCLGYSLLLMVTCTVYAIKARGVPETFNEAKPIGFTMYTTCIIWLAFVPIFFGTAQSAEKIYIQTTTLTVSLSLSASVSLGMLYVPKTYVILFHPEQNVQKRKRSLKKTSTMAAPPKSENSEDAK,localisation_or_trafficking,[1],decreases
same,localisation_or_trafficking,[2],no change
mGluR6 (metabotropic glutamate receptor 6): triple mutant (only N473 left) (protein) parent chain: MGRLRVLLLWLAWWLSQAGIAHGAGSVRLAGGLTLGGLFPVHARGAAGRACGTLKKEQGVHRLEAMLYALDRINADPELLPGVRLGARLLDTCSRDTYALEQALSFVQALIRGRGDGEEASVRCPGGVPPLRAAPPERVVAVVGASASSVSIMVANVLRLFAIPQISYASTAPELSDSTRYDFFSRVVPPDSYQAQAMVDIVRALGWNYVSTLASEGNYGESGVEAFVQISREAGGVCIAQSIKIPREPKPGEFHKVIRRLMETPNARGIIIFANEDDIRRVLEATRQANLTGHFLWVGSDSWGSKISPILNLEEEAVGAITILPKRASIDGFDQYFMTRSLENNRRNIWFAEFWEENFNCKLTSSGGQSDDSTRKCTGEERIGQDSTYEQEGKVQFVIDAVYAIAHALHSMHQALCPGHTGLCPAMEPTDGRTLLHYIRAVRFNGSAGTPVMFNENGDAPGRYDIFQYQATNGSASSGGYQAVGQWAEALRLDMEALQWSGDPHEVPPSQCSLPCGPGERKKMVKGVPCCWHCEACDGYRFQVDEFTCEACPGHMRPTPNHTGCRPTPVVRLTWSSPWAALPLLLAVLGIMATTTIIATFMRHNDTPIVRASGRELSYVLLTGIFLIYAITFLMVAEPCAAVCASRRLLLGLGTTLSYSALLTKTNRIYRIFEQGKRSVTPPPFISPTSQLVITFGLTSLQVVGVIAWLGAQPPHSVIDYEEQRTVDPEQARGVLKCDMSDLSLIGCLGYSLLLMVTCTVYAIKARGVPETFNEAKPIGFTMYTTCIIWLAFVPIFFGTAQSAEKIYIQTTTLTVSLSLSASVSLGMLYVPKTYVILFHPEQNVQKRKRSLKKTSTMAAPPKSENSEDAK,expression_or_secretion,[3],decreases
same,expression_or_secretion,[4],decreases
same,localisation_or_trafficking,[1],decreases
mGluR6 (metabotropic glutamate receptor 6): 3Q!445 (protein) parent chain: MGRLRVLLLWLAWWLSQAGIAHGAGSVRLAGGLTLGGLFPVHARGAAGRACGTLKKEQGVHRLEAMLYALDRINADPELLPGVRLGARLLDTCSRDTYALEQALSFVQALIRGRGDGEEASVRCPGGVPPLRAAPPERVVAVVGASASSVSIMVANVLRLFAIPQISYASTAPELSDSTRYDFFSRVVPPDSYQAQAMVDIVRALGWNYVSTLASEGNYGESGVEAFVQISREAGGVCIAQSIKIPREPKPGEFHKVIRRLMETPNARGIIIFANEDDIRRVLEATRQANLTGHFLWVGSDSWGSKISPILNLEEEAVGAITILPKRASIDGFDQYFMTRSLENNRRNIWFAEFWEENFNCKLTSSGGQSDDSTRKCTGEERIGQDSTYEQEGKVQFVIDAVYAIAHALHSMHQALCPGHTGLCPAMEPTDGRTLLHYIRAVRFNGSAGTPVMFNENGDAPGRYDIFQYQATNGSASSGGYQAVGQWAEALRLDMEALQWSGDPHEVPPSQCSLPCGPGERKKMVKGVPCCWHCEACDGYRFQVDEFTCEACPGHMRPTPNHTGCRPTPVVRLTWSSPWAALPLLLAVLGIMATTTIIATFMRHNDTPIVRASGRELSYVLLTGIFLIYAITFLMVAEPCAAVCASRRLLLGLGTTLSYSALLTKTNRIYRIFEQGKRSVTPPPFISPTSQLVITFGLTSLQVVGVIAWLGAQPPHSVIDYEEQRTVDPEQARGVLKCDMSDLSLIGCLGYSLLLMVTCTVYAIKARGVPETFNEAKPIGFTMYTTCIIWLAFVPIFFGTAQSAEKIYIQTTTLTVSLSLSASVSLGMLYVPKTYVILFHPEQNVQKRKRSLKKTSTMAAPPKSENSEDAK,expression_or_secretion,[3],decreases
same,expression_or_secretion,[4],decreases
same,localisation_or_trafficking,[1],decreases
same,localisation_or_trafficking,[2],no change
mGluR6 (metabotropic glutamate receptor 6): 3Q!561 (protein) parent chain: MGRLRVLLLWLAWWLSQAGIAHGAGSVRLAGGLTLGGLFPVHARGAAGRACGTLKKEQGVHRLEAMLYALDRINADPELLPGVRLGARLLDTCSRDTYALEQALSFVQALIRGRGDGEEASVRCPGGVPPLRAAPPERVVAVVGASASSVSIMVANVLRLFAIPQISYASTAPELSDSTRYDFFSRVVPPDSYQAQAMVDIVRALGWNYVSTLASEGNYGESGVEAFVQISREAGGVCIAQSIKIPREPKPGEFHKVIRRLMETPNARGIIIFANEDDIRRVLEATRQANLTGHFLWVGSDSWGSKISPILNLEEEAVGAITILPKRASIDGFDQYFMTRSLENNRRNIWFAEFWEENFNCKLTSSGGQSDDSTRKCTGEERIGQDSTYEQEGKVQFVIDAVYAIAHALHSMHQALCPGHTGLCPAMEPTDGRTLLHYIRAVRFNGSAGTPVMFNENGDAPGRYDIFQYQATNGSASSGGYQAVGQWAEALRLDMEALQWSGDPHEVPPSQCSLPCGPGERKKMVKGVPCCWHCEACDGYRFQVDEFTCEACPGHMRPTPNHTGCRPTPVVRLTWSSPWAALPLLLAVLGIMATTTIIATFMRHNDTPIVRASGRELSYVLLTGIFLIYAITFLMVAEPCAAVCASRRLLLGLGTTLSYSALLTKTNRIYRIFEQGKRSVTPPPFISPTSQLVITFGLTSLQVVGVIAWLGAQPPHSVIDYEEQRTVDPEQARGVLKCDMSDLSLIGCLGYSLLLMVTCTVYAIKARGVPETFNEAKPIGFTMYTTCIIWLAFVPIFFGTAQSAEKIYIQTTTLTVSLSLSASVSLGMLYVPKTYVILFHPEQNVQKRKRSLKKTSTMAAPPKSENSEDAK,expression_or_secretion,[3],"decreases, 3Q!561 had the highest expression among the triple mutants"
same,expression_or_secretion,[4],decreases
same,localisation_or_trafficking,[1],decreases
same,localisation_or_trafficking,[2],abolishes
